pKd: −log10 of the molar value.
Key:
Experiment in all cases: IEDB peptide-MHC binding, purified MHC/competitive/radioactivity; filed as Kd, often an IC50 or EC50 that approximates it; ≥ and ≤ were set here for values at or beyond the usual limits of such assays
HLA-A*03:01 = target: HLA-A*03:01
HLA-A*68:01 = target: HLA-A*68:01
HLA-A*31:01 = target: HLA-A*31:01
HLA-A*11:01 = target: HLA-A*11:01
HLA-A*33:01 = target: HLA-A*33:01
HLA-A*02:03 = target: HLA-A*02:03
HLA-A*02:06 = target: HLA-A*02:06
[1] = source organism: Mammarenavirus lassaense
[2] = source organism: Vaccinia virus WR
[3] = source organism: SARS coronavirus Tor2
[4] = source organism: Mammarenavirus juninense
[5] = source organism: Dengue virus 1 Brazil/97-11/1997
[6] = source organism: Vaccinia virus Copenhagen
[7] = source organism: Mammarenavirus brazilense
[8] = source organism: Lassa virus Josiah

| Sequence | pKd (HLA-A*03:01; [2]) | pKd (HLA-A*68:01; [2]) | pKd (HLA-A*31:01; [2]) | pKd (HLA-A*11:01; [2]) | pKd (HLA-A*33:01; [2]) | further results |
| --- | --- | --- | --- | --- | --- | --- |
| ITFFQEVPH |  |  |  |  |  | pKd (HLA-A*03:01; [1]): 4.97; pKd (HLA-A*68:01; [1]): 7.14; pKd (HLA-A*31:01; [1]): 5.09; pKd (HLA-A*11:01; [1]): 6.71; pKd (HLA-A*33:01; [1]): ≤ 4.11 |
| LTQIFEVYWY | 6.00 | 6.03 | 6.03 | 6.46 | 5.90 |  |
| KVAGFAKFLK |  |  |  |  |  | pKd (HLA-A*03:01; [3]): 8.07; pKd (HLA-A*68:01; [3]): 7.93; pKd (HLA-A*31:01; [3]): 7.50; pKd (HLA-A*11:01; [3]): 7.97; pKd (HLA-A*33:01; [3]): 5.50 |
| RLATAIAGA |  |  |  |  |  | pKd (HLA-A*02:03; source organism: Dengue virus 3 Martinique/1243/1999): 7.94 |
| DMMFINSTCY | 6.09 | 5.72 | 6.01 | 4.97 | 6.05 |  |
| MRYTCLNSEK |  |  |  |  |  | pKd (HLA-A*03:01; [4]): 6.55; pKd (HLA-A*68:01; [4]): 5.00; pKd (HLA-A*31:01; [4]): 5.30; pKd (HLA-A*11:01; [4]): ≤ 4.31; pKd (HLA-A*33:01; [4]): 5.17 |
| DIVNNFITK | ≤ 4.39 | 7.06 | ≤ 4.53 | 6.00 | ≤ 4.57 |  |
| RAIMATIQR |  |  |  |  |  | pKd (HLA-A*03:01; [3]): 5.57; pKd (HLA-A*68:01; [3]): 7.14; pKd (HLA-A*31:01; [3]): 7.34; pKd (HLA-A*11:01; [3]): 7.04; pKd (HLA-A*33:01; [3]): 5.15 |
| LLKNDVPLA |  |  |  |  |  | pKd (HLA-A*02:03; [5]): 8.08 |
| CQLMYALEPR |  |  |  |  |  | pKd (HLA-A*03:01; [6]): 7.24; pKd (HLA-A*68:01; [6]): 8.12; pKd (HLA-A*31:01; [6]): 5.98; pKd (HLA-A*11:01; [6]): 7.41; pKd (HLA-A*33:01; [6]): 7.84 |
| LLHCVTESYK | 7.83 | 7.63 | 6.68 | 6.89 | 5.49 |  |
| LLRALRLTK |  |  |  |  |  | pKd (HLA-A*03:01; [3]): 7.61; pKd (HLA-A*68:01; [3]): ≤ 4.22; pKd (HLA-A*31:01; [3]): 6.07; pKd (HLA-A*11:01; [3]): 5.41; pKd (HLA-A*33:01; [3]): ≤ 4.62 |
| TMRIYCSLFK | 8.93 | 7.57 | 8.75 | 9.68 | 7.03 |  |
| SLLKTHRMCK |  |  |  |  |  | pKd (HLA-A*03:01; [3]): 7.87; pKd (HLA-A*68:01; [3]): ≤ 4.63; pKd (HLA-A*31:01; [3]): 6.34; pKd (HLA-A*11:01; [3]): 7.41; pKd (HLA-A*33:01; [3]): 5.16 |
| IVTFRERYSY | 6.33 | 5.99 | 6.71 | 6.84 | 4.84 |  |
| TVFFTASLFL |  |  |  |  |  | pKd (HLA-A*03:01; [4]): 5.88; pKd (HLA-A*68:01; [4]): 6.05; pKd (HLA-A*31:01; [4]): 5.14; pKd (HLA-A*11:01; [4]): 6.32; pKd (HLA-A*33:01; [4]): ≤ 4.15 |
| CLAVHECFVK |  |  |  |  |  | pKd (HLA-A*03:01; [3]): 5.52; pKd (HLA-A*68:01; [3]): 5.64; pKd (HLA-A*31:01; [3]): 5.12; pKd (HLA-A*11:01; [3]): 5.46; pKd (HLA-A*33:01; [3]): ≤ 4.21 |
| CLEWLRAKR | 4.88 | 6.53 | 7.12 | ≤ 4.31 | 6.36 |  |

| Sequence | pKd (HLA-A*03:01; [2]) | pKd (HLA-A*68:01; [2]) | pKd (HLA-A*31:01; [2]) | pKd (HLA-A*11:01; [2]) | pKd (HLA-A*33:01; [2]) | further results |
| --- | --- | --- | --- | --- | --- | --- |
| KFYGPFVDR |  |  |  |  |  | pKd (HLA-A*03:01; [3]): 5.11; pKd (HLA-A*68:01; [3]): 5.49; pKd (HLA-A*31:01; [3]): 9.34; pKd (HLA-A*11:01; [3]): 5.85; pKd (HLA-A*33:01; [3]): 5.69 |
| IIVLFQRFLR | 6.03 | 8.52 | 8.88 | 7.35 | 7.88 |  |
| AFSLDVSEK |  |  |  |  |  | pKd (HLA-A*03:01; [3]): 4.92; pKd (HLA-A*68:01; [3]): 5.17; pKd (HLA-A*31:01; [3]): 4.91; pKd (HLA-A*11:01; [3]): 5.45; pKd (HLA-A*33:01; [3]): ≤ 4.11 |
| SVSGDLILEI |  |  |  |  |  | pKd (HLA-A*02:06; [5]): 7.05 |
| IISDMYDPR |  |  |  |  |  | pKd (HLA-A*03:01; [3]): 4.89; pKd (HLA-A*68:01; [3]): 8.27; pKd (HLA-A*31:01; [3]): 6.49; pKd (HLA-A*11:01; [3]): 6.91; pKd (HLA-A*33:01; [3]): 5.87 |
| RALKYDFNH |  |  |  |  |  | pKd (HLA-A*03:01; [7]): 5.24; pKd (HLA-A*68:01; [7]): 5.16; pKd (HLA-A*31:01; [7]): 7.19; pKd (HLA-A*11:01; [7]): 5.36; pKd (HLA-A*33:01; [7]): 5.14 |
| GFEARIVDK | ≤ 4.39 | 4.79 | 5.80 | 5.04 | 4.99 |  |
| LSCTKNNSHH |  |  |  |  |  | pKd (HLA-A*03:01; [8]): ≤ 4.15; pKd (HLA-A*68:01; [8]): ≤ 4.43; pKd (HLA-A*31:01; [8]): ≤ 4.15; pKd (HLA-A*11:01; [8]): ≤ 4.20; pKd (HLA-A*33:01; [8]): ≤ 4.15 |
| QTQTYNIGK | 6.84 | 8.05 | 6.50 | 8.15 | 5.58 |  |
| KLSSIKSKSR | 6.29 | 4.73 | 6.98 | 5.00 | ≤ 4.56 |  |
| TAIKEVVMAY | 5.35 | 6.50 | 5.37 | 5.95 | ≤ 4.67 |  |
| DIVNGKECCY | ≤ 4.15 | ≤ 4.15 | ≤ 4.15 | ≤ 4.16 | ≤ 4.15 |  |
| DIETAIRAGY | 5.61 | 5.91 | 4.71 | 5.24 | 5.17 |  |
| FMAYMIGQT |  |  |  |  |  | pKd (HLA-A*02:03; source organism: Dengue virus 4 Philippines/H241/1956): 8.22 |
| VFKDSFLRK | 6.49 | 6.11 | 6.81 | 6.67 | 5.73 |  |
| VILQNAWKV |  |  |  |  |  | pKd (HLA-A*02:06; source organism: Dengue virus 2 Jamaica/1409/1983): 8.35 |
| QFVDINRNNK | 5.73 | 6.77 | 8.34 | 6.18 | 6.12 |  |
